Laboratory results as given in patent US20230080534A1, “SEMG2 ANTIBODY AND USE THEREOF” (SHANGHAI BIOTROY BIOTECHNIQUE CO., LTD., priority 2020, published 2023).
Entries after “also recorded” stand apart in the source; their conditions may differ.

T1: binding between SEMG2 and CD27 (Homo sapiens, UniProt Q02383)
T1 sequence (Q02383 24-582): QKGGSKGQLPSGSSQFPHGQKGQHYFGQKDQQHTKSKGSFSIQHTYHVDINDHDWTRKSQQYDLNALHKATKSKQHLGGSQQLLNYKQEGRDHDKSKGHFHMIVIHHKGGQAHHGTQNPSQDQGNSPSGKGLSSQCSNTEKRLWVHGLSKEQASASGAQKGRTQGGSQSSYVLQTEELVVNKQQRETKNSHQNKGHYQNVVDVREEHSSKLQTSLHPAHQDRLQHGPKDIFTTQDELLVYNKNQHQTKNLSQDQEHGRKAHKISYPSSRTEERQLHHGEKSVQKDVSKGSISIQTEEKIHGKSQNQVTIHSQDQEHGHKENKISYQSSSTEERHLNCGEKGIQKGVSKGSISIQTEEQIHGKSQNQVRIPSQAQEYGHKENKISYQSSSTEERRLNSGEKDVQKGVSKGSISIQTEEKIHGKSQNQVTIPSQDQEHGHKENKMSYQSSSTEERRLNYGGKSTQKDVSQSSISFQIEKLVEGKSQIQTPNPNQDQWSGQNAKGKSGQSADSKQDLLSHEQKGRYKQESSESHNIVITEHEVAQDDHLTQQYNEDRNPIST


Legend:
[1] = target: T1, binding between SEMG2 and CD27; assay: Antibody blocking ELISA of SEMG2 binding to CD27-Fc; conditions: for effect on the binding between SEMG2 and CD27: antibody 10 μg/mL; for blocking of binding between SEMG2 and CD27 with increasing antibody concentration: wide range of concentration
Excerpt: Because SEMG2 (497-509) sequence fragment is the key epitope of SEMG2 binding to CD27, and has a relatively short sequence, so SEMG2 (497-509) was used as an immunogen to prepare antibodies, which is theoretically easier to obtain functional antibody molecules with the function of blocking the binding between SEMG2 and CD27 than using full-length SEMG2 to prepare antibodies. For direct comparison, the differences in effective concentration of producing antibody by the two methods were verified using ELISA in the examples. Antibodies produced with SEMG2 (497-509) as immunogen and antibodies produced with full-length SEMG2 were added into the enzyme-linked immunosorbent assay (ELISA) reaction system at different concentrations (10^-2, 10^-1, 10^0, 10^1, 10^2, 10^3, 10^4 μg/mL), and the ELISA binding values were measured. The specific steps of enzyme-linked immunosorbent assay are as follows: (1) Dissolve SEMG2 protein antigen with 50 mM carbonate coating buffer (pH 9.6) to make the antigen concentration 10 μg/mL, and add into 96-well ELISA plate (purchased from Corning) at 100 μL/well, place at 4° C. overnight. (2) After discarding the coating solution on the next day, wash with PBST for three times, add 150 μL of 1% BSA to each well, and block for 2 hours at 37° C. […] (4) After washing for 5 times with PBST, add 100 of diluted HRP-labeled anti-human Fe secondary antibody, and incubate at 37° C. for 1 hour. (5) After washing with PBST for 5 times, 20 min after developing with chromogenic agent, the A450 absorption value was read using the microplate reader.
The SEMG2 (497-509) sequence was used to synthesize a polypeptide and coupled to a VLP carrier for immunization; HEK293 cells were used to express the full-length SEMG2 protein, and the purity was tested to reach 92%, and the binding activity of SEMG2 protein to CD27 was verified by ELISA. The protein and polypeptide antigens were used to immunize 10 mice respectively, and multiple immunizations were performed to enhance the effect: (1) The first immunization, 50 μg/mice of antigen, multiple subcutaneous injections together with Freund's complete adjuvant, with an interval of 3 weeks; (2) the second immunization; the same dosage and route as above, with incomplete Freund's adjuvant, and with an interval of 3 weeks; (3) the third immunization, the same dosage as above, without adjuvant, intraperitoneal injection with an interval of 3 weeks; (4) the booster immunization, the dose is 50 μg, intraperitoneal injection. 3 days after the last injection, blood was collected to measure its titer and the immune effect, and mice with higher titers were selected for hybridoma fusion screening. After subcloning, the binding of the monoclonal antibodies to the target antigens was detected by ELISA, and the function of different monoclonal antibodies in blocking the binding between SEMG2 and CD27 was measured by ELISA.
First, SEMG2(497-509) epitope-specific antibodies (for example, MM02, MM05) were compared with other epitope-specific antibodies (for example, HPA042767) for their function in blocking binding between SEMG2 and CD27 at different concentration ranges. […] The blocking function of different antibodies (irrelative mouse IgG, MM02, MM05, HPA042767) on binding between SEMG2 and CD27 was analyzed by the ELISA experiment as described in Example 11.
Further, the effects of different antibodies on the binding between SEMG2 and CD27 were compared under the condition of the same antibody concentration. In the ELISA, the same concentration (10 μg/mL) of antibody was used, and the strength of the binding between SEMG2 and CD27 was measured. […]

SEMG2(497-509) fragment = target: T2, SEMG2(497-509) fragment (Homo sapiens, UniProt Q02383); assay: ELISA binding of antibodies to SEMG2(497-509) epitope
T2 construct: SEMG2(497-509) fragment and SEMG2(563-574) fragment were immobilized on the ELISA plate; made in house; host or cells: chemical synthesis
Experimental: Specifically, SEMG2 full-length protein (1-582), SEMG2(354-403) fragment, SEMG2(442-453) fragment, SEMG2(497-509) fragment and SEMG2(563-574) fragment were immobilized on the ELISA plate, and the same concentration of antibodies (MM02, MM05, MM07, MM08, MM13, MM14, HPA042767 and HPA042835) were added. Anti-mouse or anti-rabbit secondary antibodies were then used to detect the corresponding bound antibodies. MM02, MM05, MM07, MM08, MM13, and MM14 all bound to SEMG2(497509) epitope, HPA042767 bound to SEMG2 (354-403) epitope, and HPA042835 bound to […], while none of the antibodies bound to SEMG2 (442-453) control fragment.
Specifically, the preparation of polypeptide antigens and the screening of human natural antibody library were firstly performed. The SEMG2(497-509) polypeptide was synthesized and coupled to BSA and KLH, respectively, and screened in a fully human phage display antibody library. ELISA was used to select clones that bind to antigenic epitopes for preliminary screening. Different unique sequences were obtained after sequencing single colonies, sorted according to affinity sorting, and full-length antibodies were constructed from antigen-binding fragments (Fab) with relatively high affinity. The binding ability and blocking function tests were performed after purification, that is, the effect of the antibody on binding between SEMG2 and CD27 was determined by the ELISA experiment.

| effect on the binding between SEMG2 and CD27 [1] | blocking of binding between SEMG2 and CD27 with increasing antibody concentration [1] | Molecule | binding to SEMG2(497-509) epitope (SEMG2(497-509) fragment) |
| --- | --- | --- | --- |
| significantly reduced the binding | gradually decreased | MM02: mouse monoclonal antibody against SEMG2(497-509), mIgG2b kappa, VH SEQ ID NO:35, VL SEQ ID NO:42 (antibody, V domains shown, UNSURE (1)..(115) VH; UNSURE (1)..(109) VL) VH: QIQLVQSGPEVKKPGETVRISCKASGYTLTTAGIQWVQKMPGKGLKWIGWINTHSGVPEYAEDFKGRFAFFLETSASTAYLQISNLKNEDTATYFCARLGLLGYWGQGTTLTVSS VL: DILLTQSPAILSVSPGERVSFSCRASQSIGTTIHWYQQRTNGSPRLLIKYASESISGIPSRFSGSGSGTDFTLSINSVESEDIADYYCQQSNSWPWTFGGGTKLEIKRA | able to hind to SEMG2(497-509); also recorded: bound |
| significantly reduced the binding | gradually decreased | MM05: mouse monoclonal antibody against SEMG2(497-509), mIgG1 kappa, VH SEQ ID NO:36, VL SEQ ID NO:43 (antibody, V domains shown, UNSURE (1)..(120) VH; UNSURE (1)..(115) VL) VH: QVQLQQPGAELVRPGASVKLSCEASGYTFTSYWMNWVKQRPGQGLEWIGMIDPSDSETHYNQMFKDKATLTVDKSSSTAYMQLSSLTSEDSAVYYCARYLGGKEGSFDYWGQGTTLTVSS VL: DIVMSQSPSSLAVSAGEKVTMSCKSSQSLLNSRTRKNYLAWYQQKPGQSPKLLIYWASTRESGVPDRFTGSGSGTDFTLTISSVQAEDLAVYYCKQSYSLPWTFGGGTKLEIKRA | able to hind to SEMG2(497-509); also recorded: bound |
